According to paper PMC3696110, “Hsp70 Oligomerization Is Mediated by an Interaction between the Interdomain Linker and the Substrate-Binding Domain” (PLoS ONE, 2013):
Several values for one entry are separate records, joined by “and”; a condition that tells them apart may be missing. Equal entries are not always repeated.

What was measured:
[1] = previously reported; ref [S3]; cited from earlier work
Procedure: Supplementary file pone.0067961.s005.tif: Figure S4 Concentration dependency of the analytical SEC chromatograms of the 'C-term' variant. The protein concentrations used were 1µM (black line), 2µM (orange line), 5 µM (pink line), 10 µM (cyan line), 70 µM (red line) and 125 µM (green line). Essentially the same elution profile was found for all the protein concentrations used. At the top the chromatogram the previously reported Stokes radii of the standard proteins used to calibrate the column are reported: conalbumin (40.4 Å), ovalbumin (30.5 Å), carbonic anhydrase (23.6 Å) [S3], ribonuclease ...

[2] = Secondary structure content from far-UV CD; format: physicochemical, human; details: K2D software; 20 µM protein, 7 mM Tris pH 7.4, 170 mM KCl, 5 mM MgCl2; 25 °C
Procedure: Far-UV CD spectra for all protein variants were recorded using a Jasco J-810 spectropolarimeter equipped with a Peltier holder, using a 0.1 cm path length cuvette. Typically, samples contained 20 µM protein in 7 mM Tris buffer at pH 7.4, containing 170 mM KCl and 5 mM MgCl2. The far-UV CD spectra of all the variants in their native, thermally denatured and refolded states were recorded from 198 to 250 nm, and the spectrum of the buffer was systematically subtracted from the spectra of all protein samples. The secondary structure content was estimated from the far-UV CD spectrum for each protein variant using K2D software.

[3] = Analytical SEC relative populations of oligomeric forms; format: physicochemical, human; details: Superdex 75, 4 °C, 50 mM Tris pH 7.4, 150 mM KCl
Procedure: (§1) Analytical SEC was performed at 4 °C using a Superdex 75 10/300 GL column (GE Healthcare LifeSciences, Little Chalfont, U.K.), which had previously been calibrated using a mixture of standard proteins (Gel Filtration LMW Calibration Kit; GE Healthcare LifeSciences, Little Chalfont, U.K.). Typically, samples of the various constructs contained 70 µM of protein in 50 mM Tris buffer at pH 7.4, with 150 mM KCl, 5 mM MgCl2 and were incubated for 15 min (unless otherwise specified) at room temperature before being loaded onto the column for analysis. To evaluate the reversibility of the oligomerization process, the different elution peaks obtained for each protein variant were subsequently analyzed after concentrating the different fractions using AmiconUltra-0.5, Ultracel-3 Membrane, 3 kDa (Millipore, Bedford, MA, USA). A similar analysis was also performed at 6 µM concentration for all the protein variants to allow for a direct comparison between the results obtained by SEC and MS experiments.
The influence of substrate binding on the oligomerization properties of all the variants was examined by using the well-characterized Hsp70 substrate, the NR peptide (NRLLLTG, Genemed Synthesis Inc., San Antonio, TX, USA). A 14-fold excess of the peptide was added in each case to a fresh protein sample, incubated for 1 h at room temperature, unless otherwise specified, and then loaded onto the Superdex 75 10/300 GL column for analysis. The relative quantities of the different protein species were estimated by analysing the chromatographic profile using a Gaussian function for each elution peak (OriginPro 8, Originlab, Northampton, MA, USA) and measuring the relative area under each peak.

[4] = Thermal denaturation monitored by far-UV CD; format: physicochemical, human
Procedure: Protein structural stability was analyzed by monitoring the CD signal at 222 nm upon thermal denaturation. Thermal runs were performed from 5 to 90 °C at a rate of 1 °C. min^-1. Data points were acquired every 0.1 °C with a response time of 2 s and a bandwidth of […]. After thermal denaturation, each protein sample was cooled to the starting temperature, and a second denaturation curve recorded in order to analyse the degree of reversibility of the denaturation process. Analysis of the thermal unfolding curves was performed assuming a three-state unfolding model.

[5] = SEC/DLS of oligomeric species; format: physicochemical, human; details: SEC, ΔLSBD641 at the same protein concentration, no NR peptide
Procedure: as §1, with “A similar analysis was also performed at 6 µM concentration for all the protein variants to allow for a direct comparison between the results obtained by SEC and MS experiments.” left out
Dynamic light scattering. Representative size distributions of SBD641 at different protein concentrations in Tris 50 mM, pH 7.4, 150 mM KCl, 5 mM MgCl2 were recorded at 25 °C on the Zetasizer Nano ZS instrument (Malvern Instruments Ltd.) at 633 nm after 1 h of incubation at room temperature. […] Some samples were analyzed after 1 h and 4 h incubation at room temperature and the same intensity size distributions were obtained. The samples were centrifuged for 15 min at 13200 rpm to remove dust particles and the scattered light was detected at an angle of 173°. […]

[6] = nESI-MS relative populations of oligomeric forms; format: physicochemical, human; details: 6-15 µM protein, 150 mM ammonium acetate, pH 7.4, estimated error 5% (SD of 3-4 independent experiments)
Procedure: Prior to MS analysis, samples were buffer exchanged into 150 mM ammonium acetate, pH 7.4, using Micro Bio-spin 6 columns (Bio-Rad, Digilab Division, Cambridge, MA, USA). For all the experiments protein concentrations ranging from 6 to 18 µM were used. In the case of the substrate binding experiments, proteins were analyzed in the presence of a 1: 1 molar ratio of the NR peptide; this substrate concentration, lower than in the SEC experiments, was chosen to ensure adequate resolution of the various charge state series, which is critical for unambiguous assignment of substrate-bound states. Due to suppression effects during nESI ionization, a relatively limited set of molar ratios could be investigated by in this way.
nESI-MS spectra were obtained according to a previously published protocol on an orthogonal time-of-flight mass spectrometer with a Z-spray source (LCT, Waters, Manchester, UK) in positive ion mode using the following parameters: capillary voltage, 1500 V; sample cone voltage, 120 V (unless otherwise specified); extraction cone voltage, 1V; and ion transfer stage pressure, 8.8 mbar. Spectra were calibrated externally using a 33 mg/ml solution of cesium iodide. Data were acquired and processed with MassLynx software (Waters, Manchester, UK), and are shown with minimal smoothing and without background subtraction. The relative abundances of the different oligomeric states were estimated from the intensities of the most abundant charge states for each construct and are expressed as a percentage of the total intensity.

ΔLSBD641 = biological target: T1, ΔLSBD641 (Homo sapiens, UniProt P0DMV8); test: Fluorescence titration of dansyl-NR peptide binding; details: 2 µM dansyl-NR peptide, fluorescence ex 330 nm; 50 mM Tris pH 7.4, 150 mM KCl, 5 mM MgCl2; 1 h at 25°C; single-site fit; average of two samples; read-out: Kd (apparent dissociation constant)
T1 construct: ΔLSBD641 (394-641), corresponding to SBD641 without the first ten residues of the interdomain linker; hexa-His (N, cleaved yes); made in house; host or cells: E. coli BL21 (DE3) Gold, pET-28b
Procedure: (§2) The interaction between the different Hsp70 variants and the NR peptide was studied in 50 mM Tris buffer at pH 7.4, with 150 mM KCl, and 5 mM MgCl2 using fluorescence spectroscopy by titrating different concentrations of chaperone into a solution containing 2 µM dansyl-NR peptide (N-terminally labeled; Genemed Synthesis Inc., San Antonio, TX, USA) after incubating the mixtures for 1 h at 25°C. The concentration of dansyl-NR peptide was calculated using an extinction coefficient at 327 nm of 4300 M^-1.cm^-1 [39]. The fluorescence emission spectrum of each sample was recorded from 400 to 630 nm after excitation at 330 nm, and the data reported correspond to the average intensity at the maximum emission wavelength of two different samples for which ten spectra were recorded. The increase in fluorescence signal was plotted as a function of chaperone concentration (Figure S2), and analyzed assuming single-site binding using the following equation:
(§3) ΔF=ΔFmaxΘL=ΔFmax/2LT[(PT+LT+Kd)−(PT+LT+Kd)^2−4PTLT] (1)
(§4) where ΘL is the fraction of bound ligand, ΔF is the increase in fluorescence intensity observed at a given concentration of Hsp70 variant, ΔF max is the increase in fluorescence at saturation, L T and P T are the total ligand and protein concentration respectively, and K d is the apparent dissociation constant of the complex. The fraction of bound ligand was plotted as a function of protein concentration in order to compare affinities between the different chaperone variants.

FL-Hsp70 = biological target: T2, FL-Hsp70 (Homo sapiens, UniProt P0DMV8); test: as above; details: 2 µM dansyl-NR peptide, fluorescence ex 330 nm; 50 mM Tris pH 7.4, 150 mM KCl, 5 mM MgCl2; 1 h at 25°C; single-site fit; average of two samples; read-out: Kd (apparent dissociation constant)
T2 construct: 35% of full-length Hsp70 (FL-Hsp70) exists as oligomeric species; hexa-His (N, cleaved yes); made in house; host or cells: E. coli BL21 (DE3) Gold, pET-28b
Procedure: as §2, §3, §4

SBD556 = biological target: T3, SBD556 (Homo sapiens, UniProt P0DMV8, L542Y); test: as above
T3 construct: SBD556 (384-556), which lacks helices C, D and E and the C-terminal disordered region; hexa-His (N, cleaved yes); made in house; host or cells: E. coli BL21 (DE3) Gold, pET-28b
Procedure: as §2, §3, §4

SBD641 = biological target: T4, SBD641 (Homo sapiens, UniProt P0DMV8); test: as above; details: 2 µM dansyl-NR peptide, fluorescence ex 330 nm; 50 mM Tris pH 7.4, 150 mM KCl, 5 mM MgCl2; 1 h at 25°C; single-site fit; average of two samples; read-out: Kd (apparent dissociation constant)
T4 construct: SBD641 (384-641), corresponding to the full-length SBD; hexa-His (N, cleaved yes); made in house; host or cells: E. coli BL21 (DE3) Gold, pET-28b
Procedure: as §2, §3, §4

[7] = 70 µM protein, 5 mM MgCl2, 15 min at room temperature, estimated error 3.5% (SD of 3-4 independent experiments)
[8] = 6-15 µM protein, 5 mM MgCl2, estimated error 3.5% (SD of 3-4 independent experiments)

T3 sequence (P0DMV8 384-556 L542Y): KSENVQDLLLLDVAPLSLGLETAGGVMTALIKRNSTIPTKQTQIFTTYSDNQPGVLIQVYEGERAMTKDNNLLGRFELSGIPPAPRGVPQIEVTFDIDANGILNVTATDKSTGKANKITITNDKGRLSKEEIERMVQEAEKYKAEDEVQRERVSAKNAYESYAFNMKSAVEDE
T4 sequence (P0DMV8 384-641): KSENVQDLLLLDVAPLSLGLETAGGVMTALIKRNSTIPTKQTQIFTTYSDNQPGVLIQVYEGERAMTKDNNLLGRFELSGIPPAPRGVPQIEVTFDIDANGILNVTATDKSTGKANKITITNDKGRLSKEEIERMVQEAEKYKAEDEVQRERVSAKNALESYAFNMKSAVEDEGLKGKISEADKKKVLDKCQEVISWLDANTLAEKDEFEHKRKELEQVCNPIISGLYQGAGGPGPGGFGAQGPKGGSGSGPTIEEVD
T2 sequence (P0DMV8 whole entry): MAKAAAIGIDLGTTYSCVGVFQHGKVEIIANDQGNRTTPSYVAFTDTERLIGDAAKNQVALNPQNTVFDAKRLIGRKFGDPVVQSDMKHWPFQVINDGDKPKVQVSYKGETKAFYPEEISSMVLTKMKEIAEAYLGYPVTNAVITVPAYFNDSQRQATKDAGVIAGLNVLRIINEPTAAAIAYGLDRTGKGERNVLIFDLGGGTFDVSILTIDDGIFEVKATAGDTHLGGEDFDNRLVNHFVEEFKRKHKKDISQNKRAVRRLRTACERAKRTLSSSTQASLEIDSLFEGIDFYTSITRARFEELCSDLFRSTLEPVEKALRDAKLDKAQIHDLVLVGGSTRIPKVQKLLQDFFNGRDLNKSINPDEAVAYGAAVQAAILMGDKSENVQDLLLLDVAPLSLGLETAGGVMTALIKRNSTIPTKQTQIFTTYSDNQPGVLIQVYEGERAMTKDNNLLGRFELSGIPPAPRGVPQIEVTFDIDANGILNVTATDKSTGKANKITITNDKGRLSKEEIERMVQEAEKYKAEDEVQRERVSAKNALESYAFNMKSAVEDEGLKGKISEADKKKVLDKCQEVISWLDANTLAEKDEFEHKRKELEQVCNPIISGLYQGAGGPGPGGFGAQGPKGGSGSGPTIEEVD
T1 sequence (P0DMV8 395-641, stated change not applied): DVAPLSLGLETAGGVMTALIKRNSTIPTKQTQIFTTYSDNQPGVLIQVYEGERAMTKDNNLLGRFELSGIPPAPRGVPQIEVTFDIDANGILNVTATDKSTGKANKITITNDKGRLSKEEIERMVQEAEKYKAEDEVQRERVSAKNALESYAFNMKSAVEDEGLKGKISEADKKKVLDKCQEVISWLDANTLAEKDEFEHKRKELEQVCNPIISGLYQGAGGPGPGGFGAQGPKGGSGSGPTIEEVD

**Q.** Which “Stokes radius of SEC standard protein” value [1] does the source give for carbonic anhydrase [reference compound] here?
**A.** 23.6 Å

**Q.** Which “Random-coil content estimated from far-UV CD” value [2] does the source give for “ΔLSBD641: SBD641 without the first ten residues of the interdomain linker (SENVQDLLLL), residues 394-641” here?
**A.** 47%

**Q.** What about the “α-helix content estimated from far-UV CD” value [2] of the same compound?
**A.** 35%

**Q.** What about the “β-sheet content estimated from far-UV CD” value [2] of the same compound?
**A.** 18%

**Q.** And the Dimer population [3, 7]?
**A.** 14%

**Q.** What about the Monomer population [3, 7] of the same compound?
**A.** 86%

**Q.** And the Total oligomer population [3, 7]?
**A.** 14%

**Q.** What about the Dimer population [3, 8] of the same compound?
**A.** 9%

**Q.** What about the Monomer population [3, 8] of the same compound?
**A.** > 90%

**Q.** What about the Total oligomer population [3, 8] of the same compound?
**A.** 9%

**Q.** What about the Monomer population ([3]; 6-15 µM protein, 5 mM MgCl2, estimated error 3.5% (SD of 3-4 independent experiments), listed as ∆LSBD641) of the same compound?
**A.** 91%

**Q.** What about the “∆Hm, 1st transition” value ([4]; CD 222 nm, 20 µM protein, 7 mM Tris pH 7.4, 170 mM KCl, 5 mM MgCl2, three-state fit (C-term two-state), SE of fit) of the same compound?
**A.** 45.6 ± 2.4 kcal/mol

**Q.** And the “∆Hm, 2nd transition” value ([4]; CD 222 nm, 20 µM protein, 7 mM Tris pH 7.4, 170 mM KCl, 5 mM MgCl2, three-state fit, SE of fit)?
**A.** 61.0 ± 1.1 kcal/mol

**Q.** What about the “Tm, 1st transition” value ([4]; CD 222 nm, 5 to 90 °C at 1 °C/min, 20 µM protein, 7 mM Tris pH 7.4, 170 mM KCl, 5 mM MgCl2, three-state fit (C-term two-state), SE of fit) of the same compound?
**A.** 44.9 ± 0.3 °C

**Q.** And the “Tm, 2nd transition” value ([4]; CD 222 nm, 5 to 90 °C at 1 °C/min, 20 µM protein, 7 mM Tris pH 7.4, 170 mM KCl, 5 mM MgCl2, three-state fit, SE of fit)?
**A.** 72.3 ± 0.1 °C

**Q.** What about the “Degree of irreversibility of overall protein thermal denaturation” value ([4]; far-UV CD) of the same compound?
**A.** exactly the same behaviour

**Q.** And the Oligomer fraction [5]?
**A.** ca. 0.1

**Q.** What about the Dimer population [6] of the same compound?
**A.** 8%

**Q.** And the Monomer population [6]?
**A.** > 90%

**Q.** What about the Total oligomer population [6] of the same compound?
**A.** 8%

**Q.** What about the Trimer population [6] of the same compound?
**A.** 0%

**Q.** What about the Monomer population ([6]; listed as ∆LSBD641) of the same compound?
**A.** 92%

**Q.** With CC(C)C[C@H](NC(=O)[C@H](CC(C)C)NC(=O)[C@H](CCCNC(=N)N)NC(=O)[C@@H](N)CC(N)=O)C(=O)N[C@@H](CC(C)C)C(=O)N[C@H](C(=O)NCC(=O)O)[C@@H](C)O [NR peptide, NRLLLTG] as the compound, how does the Kd (ΔLSBD641) read?
**A.** 8 ± 2 µM

**Q.** What about the Kd (FL-Hsp70) of the same compound?
**A.** 9 µM and 8 to 10 µM

**Q.** What about the Kd (SBD556; 2 µM dansyl-NR peptide, fluorescence ex 330 nm, 50 mM Tris pH 7.4, 150 mM KCl, 5 mM MgCl2, 1 h at 25°C, single-site fit, average of two samples, read-out: Kd (apparent dissociation constant)) of the same compound?
**A.** 53 ± 16 µM

**Q.** What about the “Reduction of fluorescence intensity at saturation (Fmax)” value (SBD556; fluorescence titration, SBD556 vs other chaperone variants) of the same compound?
**A.** ~25%

**Q.** And the Kd (SBD641)?
**A.** 11 µM and 1 to 10 µM
